Results from paper PMC2741639 (Microbiological research, 2008).

Target: the molecule itself
Assay: native gel or EMSA

B1: His-tagged Sbm (enzyme, E. coli, UniProt P27253 1-714, looked up)
chain: MSNVQEWQQLANKELSRREKTVDSLVHQTAEGIAIKPLYTEADLDNLEVTGTLPGLPPYVRGPRATMYTAQPWTIRQYAGFSTAKESNAFYRRNLAAGQKGLSVAFDLATHRGYDSDNPRVAGDVGKAGVAIDTVEDMKVLFDQIPLDKMSVSMTMNGAVLPVLAFYIVAAEEQGVTPDKLTGTIQNDILKEYLCRNTYIYPPKPSMRIIADIIAWCSGNMPRFNTISISGYHMGEAGANCVQQVAFTLADGIEYIKAAISAGLKIDDFAPRLSFFFGIGMDLFMNVAMLRAARYLWSEAVSGFGAQDPKSLALRTHCQTSGWSLTEQDPYNNVIRTTIEALAATLGGTQSLHTNAFDEALGLPTDFSARIARNTQIIIQEESELCRTVDPLAGSYYIESLTDQIVKQARAIIQQIDEAGGMAKAIEAGLPKRMIEEASAREQSLIDQGKRVIVGVNKYKLDHEDETDVLEIDNVMVRNEQIASLERIRATRDDAAVTAALNALTHAAQHNENLLAAAVNAARVRATLGEISDALEVAFDRYLVPSQCVTGVIAQSYHQSEKSASEFDAIVAQTEQFLADNGRRPRILIAKMGQDGHDRGAKVIASAYSDLGFDVDLSPMFSTPEEIARLAVENDVHVVGASSLAAGHKTLIPELVEALKKWGREDICVVAGGVIPPQDYAFLQERGVAAIYGPGTPMLDSVRDVLNLISQHHD
- stoichiometry N: 2
